Assay results taken from patent publication US20180177842A1 (CANIMGUIDE THERAPEUTICS, published 2018).

Target: T1, P3028 (VFDEFKPLVEEPQNLIK, SEQ ID NO: 185), His-tagged (human)
T1 construct: Synthetic fragment of human serum albumin (positions 397-413); used in solution as His-tagged peptide PGE73; also called PGE73; not shown: His-tag
T1 peptide: VFDEFKPLVEEPQNLIK
Assay: PEPSCAN ELISA; peptide on chip, His-P3028 added;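 note: peroxidase color development with ABTS and H2O2 substrate, OD405 imaged by CCD camera with image processing and taken as raw values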

Going from KKLDTFFVKLSLSTER [KKLDTFFVKLSLSTER (SEQ ID NO: 372)] to KKLDWFFVKLSLFTER [KKLDWFFVKLSLFTER (SEQ ID NO: 311)], the “RAMPO Score” value falls from 635 rampo units to 418 rampo units.

Going from KKLDTFFVKLSYFTER [KKLDTFFVKLSYFTER (SEQ ID NO: 475)] to KKLDTRFVKLSLFTER [KKLDTRFVKLSLFTER (SEQ ID NO: 486)], the “RAMPO Score” value falls from 320 rampo units to 309 rampo units.

First: KKLDTFQVKLSLFTER [KKLDTFQVKLSLFTER (SEQ ID NO: 322)]
Second: KKLDTKFVKLSLFTER [KKLDTKFVKLSLFTER (SEQ ID NO: 460)]
The “RAMPO Score” value of the first is higher: 511 rampo units for the first, 337 rampo units for the second.

Going from KKLDTFFVRLSLFTER [KKLDTFFVRLSLFTER (SEQ ID NO: 331)] to KKLDTFHVKLSLFTER [KKLDTFHVKLSLFTER (SEQ ID NO: 433)], the “RAMPO Score” value falls from 374 rampo units to 364 rampo units.

Going from KKLDTFFVKLSQFTER [KKLDTFFVKLSQFTER (SEQ ID NO: 355)] to KKLDTWFVKLSLFTER [KKLDTWFVKLSLFTER (SEQ ID NO: 444)], the “RAMPO Score” value falls from 651 rampo units to 348 rampo units.

Compared with KKLDTFFVKLSSFTER [KKLDTFFVKLSSFTER (SEQ ID NO: 357)], KKLDTGFVKLSLFTER [KKLDTGFVKLSLFTER (SEQ ID NO: 446)] is lower in “RAMPO Score” value: 478 rampo units for the first, 347 rampo units for the second.

Going from KKLDTMFVKLSLFTER [KKLDTMFVKLSLFTER (SEQ ID NO: 315)] to KKLDTFNVKLSLFTER [KKLDTFNVKLSLFTER (SEQ ID NO: 443)], the “RAMPO Score” value falls from 467 rampo units to 348 rampo units.

Compared with KKLDTFTVKLSLFTER [KKLDTFTVKLSLFTER (SEQ ID NO: 324)], KKLDTFFVKLSNFTER [KKLDTFFVKLSNFTER (SEQ ID NO: 354)] is lower in “RAMPO Score” value: 517 rampo units for the first, 462 rampo units for the second.

Compared with KKLDTSFVKLSLFTER [KKLDTSFVKLSLFTER (SEQ ID NO: 401)], KKLDTFWVKLSLFTER [KKLDTFWVKLSLFTER (SEQ ID NO: 425)] is lower in “RAMPO Score” value: 432 rampo units for the first, 380 rampo units for the second.

Compared with KKLDTFFVKLSLYTER [KKLDTFFVKLSLYTER (SEQ ID NO: 503)], KKLDTFFVKLVLFTER [KKLDTFFVKLVLFTER (SEQ ID NO: 419)] is higher in “RAMPO Score” value: 291 rampo units for the first, 392 rampo units for the second.

Going from KKLDTFFVKNSLFTER [KKLDTFFVKNSLFTER (SEQ ID NO: 337)] to KKLDTFFVKMSLFTER [KKLDTFFVKMSLFTER (SEQ ID NO: 336)], the “RAMPO Score” value rises from 365 rampo units to 460 rampo units.

Compared with KKLDTTFVKLSLFTER [KKLDTTFVKLSLFTER (SEQ ID NO: 318)], KKLDTFFVKLSLTTER [KKLDTFFVKLSLTTER (SEQ ID NO: 373)] is higher in “RAMPO Score” value: 481 rampo units for the first, 494 rampo units for the second.

First: KKLDTFFVWLSLFTER [KKLDTFFVWLSLFTER (SEQ ID NO: 526)]
Second: KKLDTFFVKLSPFTER [KKLDTFFVKLSPFTER (SEQ ID NO: 497)]
The “RAMPO Score” value of the first is lower: 245 rampo units for the first, 297 rampo units for the second.

Going from KKLETFFVKLSLFTER [KKLETFFVKLSLFTER (SEQ ID NO: 299)] to KKLDTFFVKLTLFTER [KKLDTFFVKLTLFTER (SEQ ID NO: 349)], the “RAMPO Score” value rises from 417 rampo units to 520 rampo units.

First: KKLDTFRVKLSLFTER [KKLDTFRVKLSLFTER (SEQ ID NO: 432)]
Second: KKLDTFFVKVSLFTER [KKLDTFFVKVSLFTER (SEQ ID NO: 343)]
The “RAMPO Score” value of the first is lower: 369 rampo units for the first, 658 rampo units for the second.

First: KKLDTFFVKLSWFTER [KKLDTFFVKLSWFTER (SEQ ID NO: 360)]
Second: KKLDTYFVKLSLFTER [KKLDTYFVKLSLFTER (SEQ ID NO: 434)]
The “RAMPO Score” value of the first is higher: 409 rampo units for the first, 364 rampo units for the second.

First: KKLDTFPVKLSLFTER [KKLDTFPVKLSLFTER (SEQ ID NO: 437)]
Second: KKLDTNFVKLSLFTER [KKLDTNFVKLSLFTER (SEQ ID NO: 316)]
The “RAMPO Score” value of the first is lower: 356 rampo units for the first, 446 rampo units for the second.

Going from KKLDTVFVKLSLFTER [KKLDTVFVKLSLFTER (SEQ ID NO: 319)] to KKLDTHFVKLSLFTER [KKLDTHFVKLSLFTER (SEQ ID NO: 466)], the “RAMPO Score” value falls from 547 rampo units to 332 rampo units.

First: KKLDTFGVKLSLFTER [KKLDTFGVKLSLFTER (SEQ ID NO: 96)]
Second: KKLDTFFVMLSLFTER [KKLDTFFVMLSLFTER (SEQ ID NO: 509)]
The “RAMPO Score” value of the first is higher: 347 rampo units for the first, 283 rampo units for the second.

Compared with KKLDTFIVKLSLFTER [KKLDTFIVKLSLFTER (SEQ ID NO: 397)], KKLDTIFVKLSLFTER [KKLDTIFVKLSLFTER (SEQ ID NO: 314)] is higher in “RAMPO Score” value: 446 rampo units for the first, 466 rampo units for the second.

First: KKLFTFFVKLSLFTER [KKLFTFFVKLSLFTER (SEQ ID NO: 426)]
Second: KKLDTFFVKLSLVTER [KKLDTFFVKLSLVTER (SEQ ID NO: 374)]
The “RAMPO Score” value of the first is lower: 380 rampo units for the first, 446 rampo units for the second.

Compared with KKLDTFFVSLSLFTER [KKLDTFFVSLSLFTER (SEQ ID NO: 511)], KKLDTFFVVLSLFTER [KKLDTFFVVLSLFTER (SEQ ID NO: 523)] is lower in “RAMPO Score” value: 274 rampo units for the first, 248 rampo units for the second.

Going from KKLDTFFVQLSLFTER [KKLDTFFVQLSLFTER (SEQ ID NO: 469)] to KKLDTLFVKLSLFTER [KKLDTLFVKLSLFTER (SEQ ID NO: 411)], the “RAMPO Score” value rises from 330 rampo units to 408 rampo units.

Going from KKLDTFFVKLSLWTER [KKLDTFFVKLSLWTER (SEQ ID NO: 375)] to KKLDTPFVKLSLFTER [KKLDTPFVKLSLFTER (SEQ ID NO: 317)], the “RAMPO Score” value rises from 430 rampo units to 497 rampo units.

First: KKLDTFFVKTSLFTER [KKLDTFFVKTSLFTER (SEQ ID NO: 342)]
Second: KKLDTFFVKPSLFTER [KKLDTFFVKPSLFTER (SEQ ID NO: 338)]
The “RAMPO Score” value of the first is lower: 399 rampo units for the first, 436 rampo units for the second.

Compared with KKLDTFVVKLSLFTER [KKLDTFVVKLSLFTER (SEQ ID NO: 325)], KKLDTFFVKRSLFTER [KKLDTFFVKRSLFTER (SEQ ID NO: 340)] is lower in “RAMPO Score” value: 527 rampo units for the first, 439 rampo units for the second.

Compared with KKLDTFFVKLSTFTER [KKLDTFFVKLSTFTER (SEQ ID NO: 358)], KKLDTFFVKWSLFTER [KKLDTFFVKWSLFTER (SEQ ID NO: 482)] is lower in “RAMPO Score” value: 437 rampo units for the first, 316 rampo units for the second.

Compared with KKLDTFSVKLSLFTER [KKLDTFSVKLSLFTER (SEQ ID NO: 323)], KKLDTFFVKYSLFTER [KKLDTFFVKYSLFTER (SEQ ID NO: 344)] is lower in “RAMPO Score” value: 700 rampo units for the first, 382 rampo units for the second.

Compared with KKLDTFYVKLSLFTER [KKLDTFYVKLSLFTER (SEQ ID NO: 463)], KKLDVFFVKLSLFTER [KKLDVFFVKLSLFTER (SEQ ID NO: 429)] is higher in “RAMPO Score” value: 334 rampo units for the first, 374 rampo units for the second.

First: KKLDTQFVKLSLFTER [KKLDTQFVKLSLFTER (SEQ ID NO: 410)]
Second: KKLDTFFVKLYLFTER [KKLDTFFVKLYLFTER (SEQ ID NO: 415)]
The “RAMPO Score” value of the first is higher: 410 rampo units for the first, 402 rampo units for the second.

Compared with KKLDTFFVKLSRFTER [KKLDTFFVKLSRFTER (SEQ ID NO: 356)], KKLDTFFVKLWLFTER [KKLDTFFVKLWLFTER (SEQ ID NO: 472)] is lower in “RAMPO Score” value: 483 rampo units for the first, 324 rampo units for the second.

First: KKLDTFFVTLSLFTER [KKLDTFFVTLSLFTER (SEQ ID NO: 445)]
Second: KKLDTFMVKLSLFTER [KKLDTFMVKLSLFTER (SEQ ID NO: 321)]
The “RAMPO Score” value of the first is lower: 347 rampo units for the first, 712 rampo units for the second.

Compared with KKLDTFFVKQSLFTER [KKLDTFFVKQSLFTER (SEQ ID NO: 339)], KKLDTFFVKLSVFTER [KKLDTFFVKLSVFTER (SEQ ID NO: 359)] is higher in “RAMPO Score” value: 470 rampo units for the first, 545 rampo units for the second.

Compared with KKLDTFFVNLSLFTER (also called 31136) [KKLDTFFVNLSLFTER (SEQ ID NO: 518)], KKLDTFFVKSSLFTER [KKLDTFFVKSSLFTER (SEQ ID NO: 341)] is higher in “RAMPO Score” value: 256 rampo units for the first, 351 rampo units for the second.

First: KKLDYFFVKLSLFTER [KKLDYFFVKLSLFTER (SEQ ID NO: 312)]
Second: KKLDTFFVKLSMFTER [KKLDTFFVKLSMFTER (SEQ ID NO: 353)]
The “RAMPO Score” value of the first is lower: 425 rampo units for the first, 499 rampo units for the second.

For KKLDTFLVKLSLFTER [KKLDTFLVKLSLFTER (SEQ ID NO: 320)], the “RAMPO Score” value was 517 rampo units.
